Measured values as given in patent US20130071921A1 (Pfizer, published 2013).

Tests used:
[1] = target: T1, Recombinant human Dkk-1 (R&D Systems cat no. 1096-DK/CF), 10xHis tag at the C terminal (human, UniProt O94907 32-266); assay: SPR screening 37C (BIAcore/ProteOn), Fab lysate over biotinylated human Dkk-1
T1 construct: the actual N-terminus of the purified protein is marked in bold italic after residue 30, but the mark is an image lost in the text; also called rhuDkk-1; hDkk-1
T1 sequence: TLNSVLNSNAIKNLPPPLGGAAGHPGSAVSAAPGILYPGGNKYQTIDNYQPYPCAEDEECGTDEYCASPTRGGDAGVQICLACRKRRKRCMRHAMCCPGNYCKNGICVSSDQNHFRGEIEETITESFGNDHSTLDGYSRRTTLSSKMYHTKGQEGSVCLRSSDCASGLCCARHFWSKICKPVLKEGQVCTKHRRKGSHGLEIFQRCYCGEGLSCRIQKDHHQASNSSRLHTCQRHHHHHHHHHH
Protocol: (§1) For screening assays to determine binding and dissociation rates of huMabJC18 variants to human Dkk1, either BIAcore or ProteOn XPR36 (BioRad, Inc.) systems were used. For the BIAcore assay, biotinylated-human Dkk1 was captured on SA (streptavidin) BIAcore chips according to the supplier's instructions. Biotinylated-human Dkk-1 protein was diluted into HBS-EP, and injected over the chip at a concentration of 5 μg/mL. Flow times across the individual chip channels were selected to achieve an antigen density of approximately 500-600 response units (RU). HBS-EP buffer was used as running buffer. Filtered recombinant E.coli cell lysates were injected at high temperature (37° C.) for 1 min at 30 ul/min, allowing a 1-5 min dissociation phase. Surfaces were regenerated with 8 mM NaOH+8% ethanol. A positive control Fab (clone 24) was injected twice at the start of the experiment, and again at the end of the assay to assess reproducibility.
(§2) For the ProteOn assay, biotinylated human Dkk-1 was injected for 1 min at serial fold dilutions empirically determined to yield different levels of immobilization (150-3000 RU) on five channels of a ProteOn NLC Neutravidin sensor chip. The sixth channel was left unmodified to serve as a reference surface. Recombinant Fabs in filtered E. coli lysates were injected at high temperature (37° C.) for 50 sec at 20 μl/min. Running buffer consisted of PBS+1 mg/ml BSA+0.005% Tween-20. The ProteOn is configured such that each injection flows over each of the five Dkk-1 channels as well as the reference channel, and six Fab samples can be injected simultaneously. Fab dissociation from the Dkk-1 surface was monitored for 20 min. The chip surface was regenerated with a 30-sec injection of 8% EtOH, 8 mM NaOH. Clone 24 Fab was used as control. Level of binding during association, and rate of dissociation for each clone was very consistent between different ligand channels.

[2] = target: T1, Recombinant human Dkk-1 (R&D Systems …); assay: theoretical: koff / estimated kon 1e6 1/Ms (SPR screening 37C)
Protocol: as §1
as §2, with “channels. […]” for “channels.”

B1: SL3.1D2 (Fab, V domains shown)
VH: EVQLVESGGGLVQPGGSLRLSCAASGFTFSSYAISWVRQAPGKGLEWVASVSGGGRTYYPDSVKGRFTISRDNAKNSLYLQMNSLRAEDTAVYYCATSLENYAFDYWGQGTTVTVSS
VL: EIVLTQSPATLSLSPGERATLSCRASESVDDFGISFMNWYQQKPGQAPRLLIYAASKQGSGIPARFSGSGSGTDFTLTISSLEPEDFAVYYCQQSKEVPPLFGGGTKVEIK
notes: tested as Fab (E. coli lysate, screening mode); human kappa CL and IgG2 CH1 not included here
Question: With B1 as the binder, how does the koff [1] read?
Answer: 0.0049 s⁻¹

Question: And the Kd [2]?
Answer: 4.9 nM

B2: SL3.3A10 (Fab, V domains shown)
VH: EVQLVESGGGLVQPGGSLRLSCAASGFTFSSYAISWVRQAPGKGLEWVASVSGGGRTYYPDSVKGRFTISRDNAKNSLYLQMNSLRAEDTAVYYCATSLENYAFDYWGQGTTVTVSS
VL: EIVLTQSPATLSLSPGERATLSCRASESVDDFGISFMNWYQQKPGQAPRLLIYAASKQGSGIPARFSGSGSGTDFTLTISSLEPEDFAVYYCQQSKELPPTFGGGTKVEIK
notes: as for B1
Question: B2 was tested. Which koff [1] did it give?
Answer: 0.00572 s⁻¹

Question: What about the Kd [2] of the same binder?
Answer: 5.72 nM

B3: SL3.3C10 (Fab, V domains shown)
VH: EVQLVESGGGLVQPGGSLRLSCAASGFTFSSYAISWVRQAPGKGLEWVASVSGGGRTYYPDSVKGRFTISRDNAKNSLYLQMNSLRAEDTAVYYCATSLENYAFDYWGQGTTVTVSS
VL: EIVLTQSPATLSLSPGERATLSCRASESVDDFGISFMNWYQQKPGQAPRLLIYAASKQGSGIPARFSGSGSGTDFTLTISSLEPEDFAVYYCQQSKEVWPTFGGGTKVEIK
notes: as for B1
Question: What does the source list for B3?
Answer: koff [1]: 0.0121 s⁻¹; Kd [2]: 12.1 nM

B4: SL3.3H8 (Fab, V domains shown)
VH: EVQLVESGGGLVQPGGSLRLSCAASGFTFSSYAISWVRQAPGKGLEWVASVSGGGRTYYPDSVKGRFTISRDNAKNSLYLQMNSLRAEDTAVYYCATSLENYAFDYWGQGTTVTVSS
VL: EIVLTQSPATLSLSPGERATLSCRASESVDDFGISFMNWYQQKPGQAPRLLIYAASKQGSGIPARFSGSGSGTDFTLTISSLEPEDFAVYYCQQSKEVPGTFGGGTKVEIK
notes: as for B1
Question: What does the source list for B4?
Answer: koff [1]: 0.0229 s⁻¹; Kd [2]: 22.9 nM

B5: SL3.4E4 (Fab, V domains shown)
VH: EVQLVESGGGLVQPGGSLRLSCAASGFTFSSYAISWVRQAPGKGLEWVASVSGGGRTYYPDSVKGRFTISRDNAKNSLYLQMNSLRAEDTAVYYCATSLENYAFDYWGQGTTVTVSS
VL: EIVLTQSPATLSLSPGERATLSCRASESVDDFGISFMNWYQQKPGQAPRLLIYAASKQGSGIPARFSGSGSGTDFTLTISSLEPEDFAVYYCQQSKDVPPTFGGGTKVEIK
notes: as for B1
Question: For B5, which koff [1] is on record?
Answer: 0.0077 s⁻¹

Question: And the Kd [2]?
Answer: 7.7 nM

B6: SL3.1F11 (Fab, V domains shown)
VH: EVQLVESGGGLVQPGGSLRLSCAASGFTFSSYAISWVRQAPGKGLEWVASVSGGGRTYYPDSVKGRFTISRDNAKNSLYLQMNSLRAEDTAVYYCATSLENYAFDYWGQGTTVTVSS
VL: EIVLTQSPATLSLSPGERATLSCRASESVDDFGISFMNWYQQKPGQAPRLLIYAASKQGSGIPARFSGSGSGTDFTLTISSLEPEDFAVYYCQQSWEVPPTFGGGTKVEIK
notes: as for B1
Question: Which results are given for B6?
Answer: koff [1]: 0.0054 s⁻¹; Kd [2]: 5.4 nM

B7: SL3.3B11 (Fab, V domains shown)
VH: EVQLVESGGGLVQPGGSLRLSCAASGFTFSSYAISWVRQAPGKGLEWVASVSGGGRTYYPDSVKGRFTISRDNAKNSLYLQMNSLRAEDTAVYYCATSLENYAFDYWGQGTTVTVSS
VL: EIVLTQSPATLSLSPGERATLSCRASESVDDFGISFMNWYQQKPGQAPRLLIYAASKQGSGIPARFSGSGSGTDFTLTISSLEPEDFAVYYCQQAKEVPPTFGGGTKVEIK
notes: as for B1
Question: What does the source list for B7?
Answer: koff [1]: 0.012 s⁻¹; Kd [2]: 12 nM

B8: SL3.4A10 (Fab, V domains shown)
VH: EVQLVESGGGLVQPGGSLRLSCAASGFTFSSYAISWVRQAPGKGLEWVASVSGGGRTYYPDSVKGRFTISRDNAKNSLYLQMNSLRAEDTAVYYCATSLENYAFDYWGQGTTVTVSS
VL: EIVLTQSPATLSLSPGERATLSCRASESVDDFGISFMNWYQQKPGQAPRLLIYAASKQGSGIPARFSGSGSGTDFTLTISSLEPEDFAVYYCQQSLEVPPTFGGGTKVEIK
notes: as for B1
Question: With B8 as the binder, how does the koff [1] read?
Answer: 0.0073 s⁻¹

Question: And the Kd [2]?
Answer: 7.3 nM

B9: SL3.3F4 (Fab, V domains shown)
VH: EVQLVESGGGLVQPGGSLRLSCAASGFTFSSYAISWVRQAPGKGLEWVASVSGGGRTYYPDSVKGRFTISRDNAKNSLYLQMNSLRAEDTAVYYCATSLENYAFDYWGQGTTVTVSS
VL: EIVLTQSPATLSLSPGERATLSCRASESVDDFGISFMNWYQQKPGQAPRLLIYAASKQGSGIPARFSGSGSGTDFTLTISSLEPEDFAVYYCQQSSEVPPTFGGGTKVEIK
notes: as for B1
Question: How did the koff [1] turn out when B9 was run?
Answer: 0.0118 s⁻¹

Question: And the Kd [2]?
Answer: 11.8 nM

B10: SL3.1G2 (Fab, V domains shown)
VH: EVQLVESGGGLVQPGGSLRLSCAASGFTFSSYAISWVRQAPGKGLEWVASVSGGGRTYYPDSVKGRFTISRDNAKNSLYLQMNSLRAEDTAVYYCATSLENYAFDYWGQGTTVTVSS
VL: EIVLTQSPATLSLSPGERATLSCRASESVDDFGISFMNWYQQKPGQAPRLLIYAASKQGSGIPARFSGSGSGTDFTLTISSLEPEDFAVYYCQQSIEVPPTFGGGTKVEIK
notes: as for B1
Question: With B10 as the binder, how does the koff [1] read?
Answer: 0.00872 s⁻¹

Question: And the Kd [2]?
Answer: 8.72 nM

B11: SL3.4C7 (Fab, V domains shown)
VH: EVQLVESGGGLVQPGGSLRLSCAASGFTFSSYAISWVRQAPGKGLEWVASVSGGGRTYYPDSVKGRFTISRDNAKNSLYLQMNSLRAEDTAVYYCATSLENYAFDYWGQGTTVTVSS
VL: EIVLTQSPATLSLSPGERATLSCRASESVDDFGISFMNWYQQKPGQAPRLLIYAASKQGSGIPARFSGSGSGTDFTLTISSLEPEDFAVYYCQHSKEVPPTFGGGTKVEIK
notes: as for B1
Question: How did the koff [1] turn out when B11 was run?
Answer: 0.0073 s⁻¹

Question: And the Kd [2]?
Answer: 7.3 nM

B12: SL3.4F1 (Fab, V domains shown)
VH: EVQLVESGGGLVQPGGSLRLSCAASGFTFSSYAISWVRQAPGKGLEWVASVSGGGRTYYPDSVKGRFTISRDNAKNSLYLQMNSLRAEDTAVYYCATSLENYAFDYWGQGTTVTVSS
VL: EIVLTQSPATLSLSPGERATLSCRASESVDDFGISFMNWYQQKPGQAPRLLIYAASKQGSGIPARFSGSGSGTDFTLTISSLEPEDFAVYYCQQSKEVPSTFGGGTKVEIK
notes: as for B1
Question: For B12, which koff [1] is on record?
Answer: 0.0169 s⁻¹

Question: And the Kd [2]?
Answer: 16.9 nM

B13: SL3.1F12 (Fab, V domains shown)
VH: EVQLVESGGGLVQPGGSLRLSCAASGFTFSSYAISWVRQAPGKGLEWVASVSGGGRTYYPDSVKGRFTISRDNAKNSLYLQMNSLRAEDTAVYYCATSLENYAFDYWGQGTTVTVSS
VL: EIVLTQSPATLSLSPGERATLSCRASESVDDFGISFMNWYQQKPGQAPRLLIYAASKQGSGIPARFSGSGSGTDFTLTISSLEPEDFAVYYCQQSKEVPPYFGGGTKVEIK
notes: as for B1
Question: With B13 as the binder, how does the koff [1] read?
Answer: 0.00552 s⁻¹

Question: What about the Kd [2] of the same binder?
Answer: 5.52 nM

B14: SL3.4D1 (Fab, V domains shown)
VH: EVQLVESGGGLVQPGGSLRLSCAASGFTFSSYAISWVRQAPGKGLEWVASVSGGGRTYYPDSVKGRFTISRDNAKNSLYLQMNSLRAEDTAVYYCATSLENYAFDYWGQGTTVTVSS
VL: EIVLTQSPATLSLSPGERATLSCRASESVDDFGISFMNWYQQKPGQAPRLLIYAASKQGSGIPARFSGSGSGTDFTLTISSLEPEDFAVYYCQQSMEVPPTFGGGTKVEIK
notes: as for B1
Question: How did the koff [1] turn out when B14 was run?
Answer: 0.0075 s⁻¹

Question: What about the Kd [2] of the same binder?
Answer: 7.5 nM

B15: SL3.1G9 (Fab, V domains shown)
VH: EVQLVESGGGLVQPGGSLRLSCAASGFTFSSYAISWVRQAPGKGLEWVASVSGGGRTYYPDSVKGRFTISRDNAKNSLYLQMNSLRAEDTAVYYCATSLENYAFDYWGQGTTVTVSS
VL: EIVLTQSPATLSLSPGERATLSCRASESVDDFGISFMNWYQQKPGQAPRLLIYAASKQGSGIPARFSGSGSGTDFTLTISSLEPEDFAVYYCQQLKEVPPTFGGGTKVEIK
notes: as for B1
Question: What does the source list for B15?
Answer: koff [1]: 0.000947 s⁻¹; Kd [2]: 0.947 nM
